According to patent US20260167721A1 (ABLEXIS, published 2026):

Columns and labels:
[1] = biological target: T1, recombinant CD3 proteins (UniProt P07766 23-126); assay: Octet BLI, recombinant CD3; Full R^2 0.987
T1 construct: elsewhere it uses human CD3 E/D and E/G heterodimers

[2] = biological target: T1, recombinant CD3 proteins; assay: Octet BLI, recombinant CD3; Full R^2 0.9778
[3] = biological target: T1, recombinant CD3 proteins; assay: Octet BLI, recombinant CD3; Full R^2 0.9897
[4] = biological target: T1, recombinant CD3 proteins; assay: Octet BLI, recombinant CD3; Full R^2 0.9829
[5] = biological target: T1, recombinant CD3 proteins; assay: Octet BLI, recombinant CD3; Full R^2 0.9599
[6] = biological target: T1, recombinant CD3 proteins; assay: Octet BLI, recombinant CD3; Full R^2 0.5677

T1 sequence (P07766 23-126): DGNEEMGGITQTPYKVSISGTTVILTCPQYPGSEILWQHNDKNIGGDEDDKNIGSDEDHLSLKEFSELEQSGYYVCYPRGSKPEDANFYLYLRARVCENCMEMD

B1: CD3 × CD33-BspAb82 (bispecific antibody)
chain 1: EVQLVESGGGLVKPGGSLRLSCAASGLTFSTYSMNWVRQAPGKCLEWVSSISSSGSYVYYADSVKGRFTMSRDNAKNSLYLQMNSLRAEDTAVYYCARERRELLFDYWGQGTLVTVSSGGGGSGGGGSGGGGSGGGGSNFMLTQPHSVSESPGKTVTISCTRSSGSIASNYVQWYQQRPGSSPTSVIYEDNQRPSGVPDRFSGSIDSSSNSASLTISGLKTEDEADYYCQSYDRSNRVFGCGTKLTVLDKTHTCPPCPAPEFEGGPSVFLFPPKPKDTLMISRTPEVTCVVVDVSHEDPEVKFNWYVDGVEVHNAKTKPREEQYNSTYRVVSVLTVLHQDWLNGKEYKCKVSNKALPASIEKTISKAKGQPREPQVYTLPPCREEMTKNQVSLWCLVKGFYPSDIAVEWESNGQPENNYKTTPPVLDSDGSFFLYSKLTVDKSRWQQGNVFSCSVMHEALHNHYTQKSLSLSPGK
chain 2: EVQLVQSGAEVKKPGSSVKVSCKASGYTITDSNIHWVRQAPGQSLEWIGYIYPYNGGTDYNQKFKNRATLTVDNPTNTAYMELSSLRSEDTAFYYCVNGNPWLAYWGQGTLVTVSSASTKGPSVFPLAPSSKSTSGGTAALGCLVKDYFPEPVTVSWNSGALTSGVHTFPAVLQSSGLYSLSSVVTVPSSSLGTQTYICNVNHKPSNTKVDKRVEPKSCDKTHTCPPCPAPEFEGGPSVFLFPPKPKDTLMISRTPEVTCVVVDVSHEDPEVKFNWYVDGVEVHNAKTKPREEQYNSTYRVVSVLTVLHQDWLNGKEYKCKVSNKALPASIEKTISKAKGQPREPQVCTLPPSREEMTKNQVSLSCAVKGFYPSDIAVEWESNGQPENNYKTTPPVLDSDGSFFLVSKLTVDKSRWQQGNVFSCSVMHEALHNRFTQKSLSLSPGK
chain 3: DIQLTQSPSTLSASVGDRVTITCRASESLDNYGIRFLTWFQQKPGKAPKLLMYAASNQGSGVPSRFSGSGSGTEFTLTISSLQPDDFATYYCQQTKEVPWSFGQGTKVEVKRTVAAPSVFIFPPSDEQLKSGTASVVCLLNNFYPREAKVQWKVDNALQSGNSQESVTEQDSKDSTYSLSSTLTLSKADYEKHKVYACEVTHQGLSSPVTKSFNRGEC
A Kd [1] of 18.7 nM, a koff [1] of 0.00536 s⁻¹ and a kon [1] of 287000 M⁻¹ s⁻¹ were found for B1 in this work.

B2: CD3 × CD33-BspAb83 (bispecific antibody)
chain 1: EVQLVESGGGLVKPGGSLRLSCVASGFTFSRYSMNWVRQAPGKCLEWVSSISSSSRYTYYADSLKGRFIMSRDNAKNSLFLQMNSLRAEDTAVYYCARNLYNALDYWGQGTLVTVSSGGGGSGGGGSGGGGSGGGGSFMLTQPHSVSESPGKTVTISCTRSSGSIASNYVQWYQQRPGSSPTTVIYEDNQRPSGVPDRFSGSIDSSSNSASLTISGLQTEDEADYYCQSYDSSNRVFGCGTKLTVLDKTHTCPPCPAPEFEGGPSVFLFPPKPKDTLMISRTPEVTCVVVDVSHEDPEVKFNWYVDGVEVHNAKTKPREEQYNSTYRVVSVLTVLHQDWLNGKEYKCKVSNKALPASIEKTISKAKGQPREPQVYTLPPCREEMTKNQVSLWCLVKGFYPSDIAVEWESNGQPENNYKTTPPVLDSDGSFFLYSKLTVDKSRWQQGNVFSCSVMHEALHNHYTQKSLSLSPGK
chain 2: B1 chain 2
chain 3: B1 chain 3
A Kd [2] of 3.28 nM, a koff [2] of 0.00134 s⁻¹ and a kon [2] of 408000 M⁻¹ s⁻¹ were found for B2 in this work.

B3: CD3 × CD33-BspAb84 (bispecific antibody)
chain 1: EVQVAESGGGLVKPGGSLRLSCAASGFTFSRYSMNWVRQAPGKCLEWVSSISSSGSYTYYADSVKGRFTISRDNAKNSLYLQMNSLRAEDTAVYYCVRERGKGAGMDVWGQGTTVTVSSGGGGSGGGGSGGGGSGGGGSNFMLTQPHSVSESPGKTVTISCTRSSGSIASNYVQWYQQRPGSSPTTVIYEDNQRPSGVPDRFSGSIDSSSNSASLTISGLKTEDEADYYCQSYDSSNRVFGCGTKLTVLDKTHTCPPCPAPEFEGGPSVFLFPPKPKDTLMISRTPEVTCVVVDVSHEDPEVKFNWYVDGVEVHNAKTKPREEQYNSTYRVVSVLTVLHQDWLNGKEYKCKVSNKALPASIEKTISKAKGQPREPQVYTLPPCREEMTKNQVSLWCLVKGFYPSDIAVEWESNGQPENNYKTTPPVLDSDGSFFLYSKLTVDKSRWQQGNVFSCSVMHEALHNHYTQKSLSLSPGK
chain 2: B1 chain 2
chain 3: B1 chain 3
A Kd [3] of 24.6 nM, a koff [3] of 0.00671 s⁻¹ and a kon [3] of 273000 M⁻¹ s⁻¹ were found for B3 in this work.

B4: CD3 × CD33-BspAb85 (bispecific antibody)
chain 1: EVQLVESGGGLVKPGGSLRLSCAASGFTFSSYSMNWVRQAPGKCLEWVSSISRSSGYIFYADSVKGRFTISRDNAKNSLYLQMNSLRAEDTAVYYCVRERVGAGFDYWGQGTLVTVSSGGGGSGGGGSGGGGSGGGGSNFMLTQPHSVSESPGKTVAISCTRSSGSIASNYVQWYQQRPGSSPTAVIYEDNQRPSGVPDRFSGSIDSSSNSAFLTISGLKTEDEADYYCQSYDSSNRVFGCGTKLTVLDKTHTCPPCPAPEFEGGPSVFLFPPKPKDTLMISRTPEVTCVVVDVSHEDPEVKFNWYVDGVEVHNAKTKPREEQYNSTYRVVSVLTVLHQDWLNGKEYKCKVSNKALPASIEKTISKAKGQPREPQVYTLPPCREEMTKNQVSLWCLVKGFYPSDIAVEWESNGQPENNYKTTPPVLDSDGSFFLYSKLTVDKSRWQQGNVFSCSVMHEALHNHYTQKSLSLSPGK
chain 2: B1 chain 2
chain 3: B1 chain 3
A Kd [4] of 60.8 nM, a koff [4] of 0.0149 s⁻¹ and a kon [4] of 246000 M⁻¹ s⁻¹ were found for B4 in this work.

B5: CD3 × CD33-BspAb86 (bispecific antibody)
chain 1: EVQLVESGGGLVKPGGSLRLSCAASGFTFSSYSMNWVRQAPGKCLEWVSSISRSGTYIYYADSVKGRFTISRDNAKNSLYLQMNSLRAEDTAVYYCARERWELLYFDYWGQGTLVTVSSGGGGSGGGGSGGGGSGGGGSQTVVTQEPSLTVSPGGTVTLTCASSTGAVTSGYYPNWFQQKPGQAPRALIYSTSNKHSWTPARFSGSLLGGKAALTLSGVQPEDEAEYYCLLYYGGAYVFGCGTKVTVLDKTHTCPPCPAPEFEGGPSVFLFPPKPKDTLMISRTPEVTCVVVDVSHEDPEVKFNWYVDGVEVHNAKTKPREEQYNSTYRVVSVLTVLHQDWLNGKEYKCKVSNKALPASIEKTISKAKGQPREPQVYTLPPCREEMTKNQVSLWCLVKGFYPSDIAVEWESNGQPENNYKTTPPVLDSDGSFFLYSKLTVDKSRWQQGNVFSCSVMHEALHNHYTQKSLSLSPGK
chain 2: B1 chain 2
chain 3: B1 chain 3
A Kd [5] of 54.2 nM, a koff [5] of 0.0149 s⁻¹ and a kon [5] of 276000 M⁻¹ s⁻¹ were found for B5 in this work.

B6: CD3 × CD33-BspAb87 (bispecific antibody)
chain 1: EVQLVESGGGLVKPGGSLRLSCAASGFTVSNYSMNWVRQAPGKCLEWVSSISRSSSYIYYADSVKGRFTISRDNAKNSLFLQMNSLRAEDTAVYYCARERWELLYFDYWGQGTLVTVSSGGGGSGGGGSGGGGSGGGGSQTVVTQEPSFSVSPGGTVTLTCGLSSGSVSTSYYPSWYQQTPGQAPRTLIYSTNTRSSGVPDRFSGSILGNKAALTITGAQADDESDYYCVLYMGSGIWVFGCGTKLTVLDKTHTCPPCPAPEFEGGPSVFLFPPKPKDTLMISRTPEVTCVVVDVSHEDPEVKFNWYVDGVEVHNAKTKPREEQYNSTYRVVSVLTVLHQDWLNGKEYKCKVSNKALPASIEKTISKAKGQPREPQVYTLPPCREEMTKNQVSLWCLVKGFYPSDIAVEWESNGQPENNYKTTPPVLDSDGSFFLYSKLTVDKSRWQQGNVFSCSVMHEALHNHYTQKSLSLSPGK
chain 2: B1 chain 2
chain 3: B1 chain 3
A Kd [6] of 5.17 nM, a koff [6] of 0.00307 s⁻¹ and a kon [6] of 594000 M⁻¹ s⁻¹ were found for B6 in this work.
